Assay [1] concerns the target recombinant LH/CG receptor (UniProt P22888).
For assay [2] the target is unchanged. This is another data set of the same source.

Chain of UniProt P22888 (P22888 27-699): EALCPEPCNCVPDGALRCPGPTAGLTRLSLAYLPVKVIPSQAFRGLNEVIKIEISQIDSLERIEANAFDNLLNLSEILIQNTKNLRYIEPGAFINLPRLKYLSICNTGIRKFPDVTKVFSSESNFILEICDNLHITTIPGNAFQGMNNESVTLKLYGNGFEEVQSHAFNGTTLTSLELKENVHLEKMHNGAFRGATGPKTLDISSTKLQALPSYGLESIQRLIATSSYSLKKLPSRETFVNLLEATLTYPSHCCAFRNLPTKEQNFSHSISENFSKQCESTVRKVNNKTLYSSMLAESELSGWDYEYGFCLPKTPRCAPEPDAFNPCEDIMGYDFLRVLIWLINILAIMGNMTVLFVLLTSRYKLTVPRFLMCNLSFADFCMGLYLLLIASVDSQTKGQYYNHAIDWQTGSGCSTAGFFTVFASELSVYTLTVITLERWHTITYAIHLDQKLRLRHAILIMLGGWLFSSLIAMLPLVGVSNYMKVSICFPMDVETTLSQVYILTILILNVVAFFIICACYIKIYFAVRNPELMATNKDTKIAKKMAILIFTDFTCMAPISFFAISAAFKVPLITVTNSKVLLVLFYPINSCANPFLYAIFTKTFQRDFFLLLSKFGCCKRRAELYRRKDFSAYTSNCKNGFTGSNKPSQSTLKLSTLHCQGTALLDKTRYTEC

Take “human recombinant chorionic gonadotropin (hCG, Ovitrelle) (from UniProt P01215 25-116; P0DN86 21-165) (ligand)”: the change of FRET signal of the cAMP biosensor TEpacVV in living COS7-LHCGR cells, serial concentrations of hCG over time; concentration giving full receptor activation in assay [1] was 50 pM. Besides, in assay [2], the cAMP biosensor signal in COS7-LHCGR cells with 30 pM hCG after heat treatment of the hormone at 65 °C for 30 min; loss in active hormone concentration came to 40%.

Source of the values: paper PMC5299843.
